For one molecule, IC50 (read off the curve) and IC50, inhibition of SCF-dependent proliferation of M-07e cells results are on record in US20260070975A1.

Assay [1] has as its target c-Kit expressed on the cell surface of M-07e cells (human) (UniProt P10721).
For assay [2] the target is unchanged. Nature of the assay: cell-based or functional assay.

Sequence of c-Kit expressed on the cell surface of M-07e cells (human) (P10721 26-976): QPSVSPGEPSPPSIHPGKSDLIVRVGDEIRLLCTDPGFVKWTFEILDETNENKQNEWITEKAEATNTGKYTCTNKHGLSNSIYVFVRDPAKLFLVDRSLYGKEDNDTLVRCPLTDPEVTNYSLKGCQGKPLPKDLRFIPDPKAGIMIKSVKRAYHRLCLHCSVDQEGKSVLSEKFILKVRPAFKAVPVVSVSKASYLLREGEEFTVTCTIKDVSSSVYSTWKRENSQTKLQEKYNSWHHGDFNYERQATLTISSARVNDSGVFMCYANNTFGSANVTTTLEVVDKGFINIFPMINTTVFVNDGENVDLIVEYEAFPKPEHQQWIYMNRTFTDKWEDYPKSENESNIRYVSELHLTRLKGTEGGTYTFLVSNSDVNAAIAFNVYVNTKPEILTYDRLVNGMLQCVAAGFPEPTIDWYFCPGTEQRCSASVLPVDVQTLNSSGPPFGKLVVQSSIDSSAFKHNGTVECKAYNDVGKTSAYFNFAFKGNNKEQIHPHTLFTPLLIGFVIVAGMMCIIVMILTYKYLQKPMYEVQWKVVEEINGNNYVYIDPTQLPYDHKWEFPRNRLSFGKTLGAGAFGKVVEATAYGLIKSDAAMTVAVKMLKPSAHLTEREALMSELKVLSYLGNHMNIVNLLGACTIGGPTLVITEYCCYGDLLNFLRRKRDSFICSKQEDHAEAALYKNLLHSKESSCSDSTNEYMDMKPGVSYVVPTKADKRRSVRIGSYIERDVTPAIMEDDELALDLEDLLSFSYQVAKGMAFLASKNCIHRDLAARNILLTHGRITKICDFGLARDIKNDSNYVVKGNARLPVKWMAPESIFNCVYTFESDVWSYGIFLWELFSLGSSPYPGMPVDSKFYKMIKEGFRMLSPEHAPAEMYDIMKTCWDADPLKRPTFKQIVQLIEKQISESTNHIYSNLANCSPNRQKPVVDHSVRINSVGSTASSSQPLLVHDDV

B1: CDX-0159 (antibody, INN chains, looked up, V domains shown)
VH: QVQLVQSGAEVKKPGASVKLSCKASGYTFTDYYINWVRQAPGKGLEWIARIYPGSGNTYYNEKFKGRATLTADKSTSTAYMQLSSLRSEDTAVYFCARGVYYFDYWGQGTTVTVSS
VL: DIVMTQSPSSLSASVGDRVTITCKASQNVRTNVAWYQQKPGKAPKALIYSASYRYSGVPDRFTGSGSGTDFTLTISSLQPEDFADYFCQQYNSYPRTFGGGTKVEIK
With B1, in assay [1], the IC50 (read off the curve) lay in the range of 0.1 to 0.2 nM. Besides, the IC50, inhibition of SCF-dependent proliferation of M-07e cells in assay [2] is 0.408 nM.
